From IntAct's records for PubMed 17035250

B1: Fibulin-5 (Homo sapiens), Q9UBX5 (parent)
chain: MPGIKRILTVTILALCLPSPGNAQAQCTNGFDLDRQSGQCLDIDECRTIPEACRGDMMCVNQNGGYLCIPRTNPVYRGPYSNPYSTPYSGPYPAAAPPLSAPNYPTISRPLICRFGYQMDESNQCVDVDECATDSHQCNPTQICINTEGGYTCSCTDGYWLLEGQCLDIDECRYGYCQQLCANVPGSYSCTCNPGFTLNEDGRSCQDVNECATENPCVQTCVNTYGSFICRCDPGYELEEDGVHCSDMDECSFSEFLCQHECVNQPGTYFCSCPPGYILLDDNRSCQDINECEHRNHTCNLQQTCYNLQGGFKCIDPIRCEEPYLRISDNRCMCPAENPGCRDQPFTILYRDMDVVSGRSVPADIFQMQATTRYPGAYYIFQIKSGNEGREFYMRQTGPISATLVMTRPIKGPREIQLDLEMITVNTVINFRGSSVIRLRIYVSQYPF

Variants of: B1
Settings: with eln_bovin ELN

Variant	effect of a mutation on the interaction
C217R	decreasing interaction strength
S227P	decreasing interaction strength
